This passage reports IC50 results from the Immune Epitope Database (IEDB).

Among the targets are HLA-A*02:02; HLA-A*68:02; HLA-A*02:01; HLA-A*02:03; HLA-A*02:06.
Holding throughout (experiment): IEDB peptide-MHC binding, purified MHC/competitive/radioactivity; ≥ and ≤ were set here for values at or beyond the usual limits of such assays
Where [1] appears, read: source organism: Vaccinia virus WR.
Setting [2] is: source organism: Mammarenavirus machupoense.
The mark [3] stands for this setting: source organism: Hepacivirus hominis.
The mark [4] stands for this setting: source organism: Influenza A virus.

In the case of TVLTSVDIET, the IC50 (commonly the concentration needed to halve the response being measured) is 1720 nM with HLA-A*02:02 (setting [1]); 2990 nM with HLA-A*68:02 (setting [1]); 1260 nM in the assay with HLA-A*02:01 (setting [1]); 915 nM with HLA-A*02:03 (setting [1]); 961 nM in the assay with HLA-A*02:06 (setting [1]).

For the sequence IIPFIAYFVL, the IC50 with HLA-A*02:02 (setting [1]) stood at 715 nM; in the assay with HLA-A*68:02 (setting [1]) it was 76 nM; with HLA-A*02:01 (setting [1]), 991 nM; with HLA-A*02:03 (setting [1]), 4730 nM; with HLA-A*02:06 (setting [1]), 852 nM.

With VQEFIFSAL, the IC50 with HLA-A*02:02 (setting [1]) amounted to 419 nM; in the assay with HLA-A*68:02 (setting [1]), 552 nM; with HLA-A*02:01 (setting [1]), 614 nM; with HLA-A*02:03 (setting [1]), 466 nM; in the assay with HLA-A*02:06 (setting [1]), 198 nM.

For the sequence ITMTTVYHI, the IC50 is 19 nM with HLA-A*02:02 (source organism: SARS-CoV1); 6.1 nM in the assay with HLA-A*68:02 (source organism: SARS-CoV1); 8.2 nM in the assay with HLA-A*02:01 (source organism: SARS-CoV1); 7.2 nM in the assay with HLA-A*02:03 (source organism: SARS-CoV1); 2.3 nM with HLA-A*02:06 (source organism: SARS-CoV1).

For the sequence MIIGEPIIVA, the IC50 with HLA-A*02:02 (setting [1]) worked out at 42 nM; with HLA-A*68:02 (setting [1]), 280 nM; with HLA-A*02:01 (setting [1]) it was 44 nM; with HLA-A*02:03 (setting [1]), 111 nM; in the assay with HLA-A*02:06 (setting [1]), 124 nM.

As for NLYKVYNGI, the half-inhibitory concentration (IC50) with HLA-A*02:02 (setting [1]) was determined as 408 nM; in the assay with HLA-A*68:02 (setting [1]), 1610 nM; with HLA-A*02:01 (setting [1]) it was 451 nM; in the assay with HLA-A*02:03 (setting [1]) it was 62 nM; with HLA-A*02:06 (setting [1]), 817 nM.

As to IIFWFSLEI, the IC50 is 1.8 nM with HLA-A*02:02 (source organism: SARS-CoV1); 520 nM with HLA-A*68:02 (source organism: SARS-CoV1); 9 nM in the assay with HLA-A*02:01 (source organism: SARS-CoV1); 87 nM with HLA-A*02:03 (source organism: SARS-CoV1); 4.6 nM with HLA-A*02:06 (source organism: SARS-CoV1).

AMPGVLSYV: the IC50 was 4.2 nM in the assay with HLA-A*02:02 (setting [2]); 834 nM with HLA-A*68:02 (setting [2]); 8.4 nM in the assay with HLA-A*02:01 (setting [2]); 7.3 nM in the assay with HLA-A*02:03 (setting [2]); 22 nM in the assay with HLA-A*02:06 (setting [2]).

With YTLLGCWSFV, the IC50 with HLA-A*02:02 (setting [3]) was 555 nM; with HLA-A*68:02 (setting [3]), 182 nM; with HLA-A*02:01 (setting [3]), 435 nM; in the assay with HLA-A*02:03 (setting [3]), 169 nM; with HLA-A*02:06 (setting [3]), 146 nM.

Take SIDHCSSFIV: the IC50 in the assay with HLA-A*02:02 (setting [1]) worked out at 172 nM; with HLA-A*68:02 (setting [1]), 732 nM; with HLA-A*02:01 (setting [1]) it was 23 nM; with HLA-A*02:03 (setting [1]), 772 nM; with HLA-A*02:06 (setting [1]), 30 nM.

As to NVDIIDLLL, the IC50 came to 461 nM with HLA-A*02:02 (setting [1]); 262 nM with HLA-A*68:02 (setting [1]); 858 nM with HLA-A*02:01 (setting [1]); 4090 nM with HLA-A*02:03 (setting [1]); 22 nM in the assay with HLA-A*02:06 (setting [1]).

Regarding AIILASFSA, the concentration for half-maximal inhibition (IC50) with HLA-A*02:02 (source organism: SARS-CoV1) is 201 nM; with HLA-A*68:02 (source organism: SARS-CoV1), 870 nM; with HLA-A*02:01 (source organism: SARS-CoV1), 274 nM; in the assay with HLA-A*02:03 (source organism: SARS-CoV1), 176 nM; with HLA-A*02:06 (source organism: SARS-CoV1), 82 nM.

For the sequence CLDAGINYV, the half-inhibitory concentration (IC50) was found to be 0.57 nM with HLA-A*02:02 (source organism: SARS-CoV1); 79 nM with HLA-A*68:02 (source organism: SARS-CoV1); 0.91 nM with HLA-A*02:01 (source organism: SARS-CoV1); 6.4 nM with HLA-A*02:03 (source organism: SARS-CoV1); 1.6 nM with HLA-A*02:06 (source organism: SARS-CoV1).

For LVIGFLFLA, the IC50 with HLA-A*02:02 (source organism: SARS-CoV1) was determined as 7.4 nM; in the assay with HLA-A*68:02 (source organism: SARS-CoV1), 26 nM; with HLA-A*02:01 (source organism: SARS-CoV1) it was 1.4 nM; in the assay with HLA-A*02:03 (source organism: SARS-CoV1), 20 nM; with HLA-A*02:06 (source organism: SARS-CoV1) it was 0.095 nM.

As for GILGFVFTLT, the 50% inhibitory concentration (IC50) with HLA-A*02:02 (setting [4]) worked out at 960 nM; in the assay with HLA-A*68:02 (setting [4]), 730 nM; with HLA-A*02:01 (setting [4]), 640 nM; with HLA-A*02:03 (setting [4]), 911 nM; in the assay with HLA-A*02:06 (setting [4]), 618 nM.

For the sequence KTDGAVTSPL, the IC50 came to 62 nM with HLA-A*02:02 (setting [1]); 542 nM with HLA-A*68:02 (setting [1]); 1080 nM with HLA-A*02:01 (setting [1]); 400 nM in the assay with HLA-A*02:03 (setting [1]); 347 nM with HLA-A*02:06 (setting [1]).

As to LLIAITAFT, the IC50 with HLA-A*02:02 (setting [3]) is 37 nM; in the assay with HLA-A*68:02 (setting [3]), 1050 nM; with HLA-A*02:01 (setting [3]) it was 174 nM; in the assay with HLA-A*02:03 (setting [3]), 12 nM; with HLA-A*02:06 (setting [3]), 461 nM.

Regarding QIFNIISYI, the IC50 is 111 nM with HLA-A*02:02 (setting [1]); 6.4 nM with HLA-A*68:02 (setting [1]); 15 nM in the assay with HLA-A*02:01 (setting [1]); 15 nM with HLA-A*02:03 (setting [1]); 1.8 nM with HLA-A*02:06 (setting [1]).
